B1: Canavalia boliviana lectin (natural protein, UniProt A0A023GPI8 1-237, looked up)
chain: ADTIVAVELDTYPNTDIGDPSYPHIGIDIKSVRSKKTAKWNMQNGKVGTAHIIYNSVGKRLSAVVSYPNGDSATVSYDVDLDNVLPEWVRVGLSATTGLYKETNTILSWSFTSKLKSNSTHETNALHFMFNQFSKDQKDLILQGDATTGRDGNLELTRVSSNGSPQGSSVGRALFYAPVHIWESSAVVASFDATFTFLIKSSDSHPADGIAFFISNIDSSIPSGSTGRLLGLFPDAN
notes: Lectin from Canavalia boliviana seeds, 237 amino acids (full-length alpha-chain, 25,572 Da); the preparation is a combination of the alpha-chain and its fragments, beta-chain (residues 1-118) and gamma-chain (residues 119-237); also called Cbol; CboL; source: purified from Canavalia boliviana seeds (according to Moura et al., 2009)

What was measured:
[1] = target: Concanavalin A (Canavalia ensiformis); test: SAXS; in solution, 1, 5 and 10 mg/ml, buffers from pH 3 to pH 9 (JBS Solubility Kit); average molecular weight at each pH from I(0), BSA as size standard; dimer-tetramer equilibrium
[2] = target: the molecule itself; test: as above

Row | Molecule | stoichiometry N [1] | stoichiometry N [2]
1 | Concanavalin A (natural protein) | 4 | –
2 | B1 | – | 4

— paper PMC4035259, “Structural Studies of an Anti-Inflammatory Lectin from Canavalia boliviana Seeds in Complex with Dimannosides” (PLoS ONE, 2014)
